Measurements: patent US20240327460A1, “NORA INHIBITORS AND METHODS OF USE” (priority 2021, published 2024)
Substitutions are numbered along the chain they refer to. In names and notes the source's numbering stands. Like-named read-outs stand apart in the source and are kept apart here.

Tests used:
MRSA = type: cell-based, Staphylococcus aureus; details: 12.5 μg/ml norfloxacin
Description: To test the effects of peptides, overnight cultures of wild-type MRSA and MRSA^ΔnorA in TSB media were diluted 1:1,000 in TSB with varying concentrations of peptides, in the presence or the absence of norfloxacin (12.5 μg/ml). All the peptide concentrations contained equal amount of the DMSO vehicle. OD600nm was measured as a function of time in a BioScreen C device at 37° C. with shaking between measurements every 15 min. Three independent experiments were acquired; reported errors reflect the standard deviation among the independent experiments.

NorA [1] = target: T1, NorA (Staphylococcus aureus, UniProt Q5HHX4); assay: Microscale thermophoresis (MST) binding of fluorescently labelled Fabs to NorA in PMAL-C8 amphipol; parameters: species or system S. aureus; details: labelled Fab 40 nM
T1 construct: made in house; host or cells: C43 (DE3) E. coli
T1 sequence (Q5HHX4 whole entry, looked up): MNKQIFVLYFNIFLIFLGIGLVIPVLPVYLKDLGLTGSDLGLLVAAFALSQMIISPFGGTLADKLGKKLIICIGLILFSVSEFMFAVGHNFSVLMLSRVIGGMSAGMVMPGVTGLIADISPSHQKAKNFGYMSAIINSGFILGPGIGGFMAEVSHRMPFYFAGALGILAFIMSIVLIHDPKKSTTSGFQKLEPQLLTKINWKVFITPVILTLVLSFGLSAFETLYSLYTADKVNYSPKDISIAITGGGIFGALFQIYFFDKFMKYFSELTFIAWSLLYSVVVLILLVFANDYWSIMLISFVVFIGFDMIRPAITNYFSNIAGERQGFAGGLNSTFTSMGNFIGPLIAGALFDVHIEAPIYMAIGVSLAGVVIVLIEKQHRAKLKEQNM
Description: Amphipol-purified NorA underwent an additional round of SEC to remove free amphipol. Purified Fabs were prepared as described above and labelled with a primary amine-reactive 647 nm fluorophore (Nanotemper) according to the manufacturer's instructions. Efficient labelling was verified spectroscopically by measuring absorbance at 280 and 650 nm. Microscale thermophoresis (MST) experiments were performed on a Monolith NT.115 Pico instrument (Nanotemper Technologies). Labelled Fab at 40 nM final concentration was mixed with NorA in 20 mM Tris pH 7.0, 100 mM NaCl, and 0.025% (w/v) Tween-20. All samples were incubated for 15 min and loaded into premium glass capillaries. The normalized fluorescent signal (Fnorm) was plotted as a function of ligand concentration and fit with a non-linear sigmoidal regression model (GraphPad Prism) using a Hill slope equal to 1.0 to obtain the Kd values. The error in Kd values for Fab25 (1.2±0.7 μM) and Fab36 (140±20 nM) represent the average and standard deviation of two independent runs with three replicates per independent run. The error range in the Kd value for Fab36^W133A (2 to 4 μM) corresponds to the 95% confidence interval of the non-linear fit. […] MST binding experiments with Fab36^W133A and Fab36^R134A were collected with three replicates each.

NorA [2] = target: T1, NorA; assay: Inhibition of NorA by Fabs in E. coli (co-expression growth inhibition assay); type: cell-based, S. aureus; details: E. coli co-expressing NorA and Fab; for E. coli growth inhibition in the presence of norfloxacin: 1.2 μg/ml norfloxacin, arabinose-induced Fab, OD600nm; for E. coli growth inhibition in the absence of norfloxacin: no norfloxacin
Text: NorA was encoded in a pTrcHis2C plasmid (ampicillin resistance) with a C-terminal myc-tag (Yu et al., “NorA Functions as a Multidrug Efflux Protein in Both Cytoplasmic Membrane Vesicles and Reconstituted Proteoliposomes,” J Bacteriol 184:1370-1377 (2002), which is hereby incorporated by reference in its entirety), while Fabs were cloned in a pBAD33 plasmid (gentamicin resistance) (Jimenez et al., “Genetics and Proteomics of Aeromonas salmonicida Lipopolysaccharide Core Biosynthesis,” J Bacteriol 191:2228-2236 (2009), which is hereby incorporated by reference in its entirety) with a C-terminal Avi-tag on the heavy chain of the Fab. Competent Top10 E. coli were co-transformed with vectors containing NorA and Fabs (Fab25, Fab36, or Fabcontrol) and grown on LB agar plates infused with carbenicillin and gentamicin. For time dependent growth curves, a single colony from the transformation was inoculated into TBG media in the presence of carbenicillin and gentamicin. The culture was grown to saturation for ˜20 hr at 30° C. Cultures were diluted by 300-fold into fresh TBG media containing carbenicillin and gentamicin, norfloxacin (0 or 1.2 μg/ml), and arabinose (0%, 0.0001%, 0.0005%, 0.0025%, 0.01%, 0.05%, 0.1%, 0.2%, 0.4%, or 0.8%). OD600nm was measured as a function of time in a BioScreen Pro C device at 30° C. with shaking between measurements every 15 min. Four independent experiments were acquired with two technical replicates per experiment; reported errors reflect the standard deviation among the experiments. Immunoblot (IB) analyses were performed on E. coli lysates co-expressing NorA and Fabs following 24 hr of growth in TBG media in the absence of norfloxacin. Primary antibodies at 1:1,000 dilutions detected the C-terminal myc tag on NorA (Genscript) and the C-terminal Avi tag on the heavy chain of the Fab (Genscript). IB analyses were repeated two independent times.
The insertion of Fab CDRH3 loops into the substrate binding pocket of NorA, as observed in the cryo-EM structures, afforded the expectation that Fab binding would inhibit antibiotic efflux (FIGS. 1A-1D, 4G). […] Since NorA is located within the inner membrane and confers norfloxacin resistance to E. coli (FIG. 6D), growth inhibition was assessed by co-expressing Fabs in the periplasm to allow access to the extracellular face of NorA. Growth curves (OD600 nm vs. time) were quantified with or without norfloxacin and with variable concentrations of arabinose for inducing Fab expression.

NorA [3] = target: T1, NorA; assay: NorA pull-down from E. coli co-expressing NorA and Fabs, immunoblot; type: binding, S. aureus; details: co-expression with 0.2% arabinose
[4] = target: T2, S. aureus NorA with a carboxy-terminal decahistidine tag, purified (Staphylococcus aureus), Q5HHX4
T2 chain: T1 sequence (Q5HHX4 whole entry, looked up)

[5] = target: T2, S. aureus NorA with a carboxy-terminal …
[6] = target: T3, Native NorA of MRSA (USA300 strain JE2) (Staphylococcus aureus), Q5HHX4; assay: cell-based or functional assay
T3 chain: T1 sequence (Q5HHX4 whole entry, looked up)

[7] = target: T4, S. aureus NorA with a carboxy-terminal decahistidine tag, purified (Staphylococcus aureus, UniProt Q5HHX4 1-388)
T4 sequence: T1 sequence (Q5HHX4 whole entry, looked up)

[8] = target: T4, S. aureus NorA with a carboxy-terminal …; assay: MST
[9] = target: T4, S. aureus NorA with a carboxy-terminal …; remark: listed apart in the source
[10] = target: T4, S. aureus NorA with a carboxy-terminal …; assay: MST; range is the 95% confidence interval of the non-linear fit

NH2-YYYYAWEVGGYWR-CONH2 (H-YYYYAWEVGGYWR-NH2) [NPI-2, control peptide substituting a glutamate for the arginine residue in the tryptophan-arginine motif, reference compound]
growth arrest of MRSA in the presence of norfloxacin (MRSA): displayed no growth arrest of MRSA

B1: Fab25: synthetic antigen-binding fragment binding NorA; CDRH3 SEQ ID NO: 6; VH SEQ ID NO: 30, VL SEQ ID NO: 31 (antibody, V domains shown)
VH: EVQLVESGGGLVQPGGSLRLSCAASGFTFSSSSIHWVRQAPGKGLEWVASISSSSGSTSYADSVKGRFTISADTSKNTAYLQMNSLRAEDTAVYYCARWETGYYPYWRMYGFYWALDYWGQGTLVTVSS
VL: DIQMTQSPSSLSASVGDRVTITCRASQSVSSAVAWYQQKPGKAPKLLIYSASSLYSGVPSRFSGSRSGTDFTLTISSLQPEDFATYYCQQSSSSLITFGQGTKVEIKRTV
modifications: NorA Antibody N3-25, Heavy Chain Variable Region; NorA Antibody N3-25, Light Chain Variable Region
Kd (NorA [1]): 1200 ± 700 nM
E. coli growth inhibition in the presence of norfloxacin (NorA [2]): showed inhibition of NorA, albeit to a lesser extent than for Fab36
E. coli growth inhibition in the absence of norfloxacin (NorA [2]): no growth inhibition
Fab in elution fraction of purified NorA (NorA [3]): contained the Fabs as detected through immunoblotting

B2: NPI-1 (NorA peptide inhibitor), NH2-…-CONH2 (peptide)
peptide: H-YYYYAWRVGGYWR-NH2
EC50 [4]: 6.29 µM
IC50 (read off the curve) [5]: 7 µM
IC50 of dose-dependent growth inhibition of MRSA in the presence of norfloxacin (12.5 µg/ml), 10 hr timepoint [6]: 0.72 µM

B3: Fab36 (Fab, V domains shown)
VH: EVQLVESGGGLVQPGGSLRLSCAASGFTFSSSSIHWVRQAPGKGLEWVASISSSSGSTSYADSVKGRFTISADTSKNTAYLQMNSLRAEDTAVYYCARYSRYYYYAWRVGGYWGGLDYWGQGTLVTVSS
VL: DIQMTQSPSSLSASVGDRVTITCRASQSVSSAVAWYQQKPGKAPKLLIYSASSLYSGVPSRFSGSRSGTDFTLTISSLQPEDFATYYCQQSSSSLITFGQGTKVEIKR
notes: also called N3-36
Kd [7]: 140 nM
fold tighter binding affinity against Fab25 [8]: ~9 fold

B4: Fab36^R134A (antibody, V domains shown)
VH: B3 VH with R108A
VL: B1 VL
Kd (NorA [1]): > 14000 nM

B5: Fab36: synthetic antigen-binding fragment binding NorA; CDRH3 SEQ ID NO: 7; VH SEQ ID NO: 32, VL SEQ ID NO: 33 (antibody, V domains shown)
VH: B3 VH
VL: B1 VL
modifications: NorA Antibody N3-36, Heavy Chain Variable Region; NorA Antibody N3-36, Light Chain Variable Region
E. coli growth inhibition in the presence of norfloxacin (NorA [2]): strongly attenuated E. coli growth in an arabinose-dependent manner
E. coli growth inhibition in the absence of norfloxacin (NorA [2]): no growth inhibition
Fab in elution fraction of purified NorA (NorA [3]): contained the Fabs as detected through immunoblotting

B6: Fab36^R134A (Fab, V domains shown)
VH: B3 VH with R108A
VL: B3 VL
fold reduced binding affinity against Fab36 [8]: > 100 fold

B7: Fab36^W133A (Fab, V domains shown)
VH: B3 VH with W107A
VL: B3 VL
fold reduced binding affinity against Fab36 [8]: ~20 fold
Kd [9]: 2800 nM
Kd [10]: 2 to 4 µM
